# Test results published in patent publication US7537764.
# B1: SC04-353 (scFv)
# scFv: EVQLVQSGGGVVQPGRSLRLSCAASGFTFSNYAMHWVRQAPGKGLEWVAVISYDGGNKYYADSVKGRFTMSRDNSKNTLYLQMNSLRAEDTAVYYCARDFWSGYSMVDSYYYYMDVWGKGTTVTVSSGTGGSGGTGSGTGGSTETTLTQSPGTLSLSPGERATLSCRASQSVSNTFLAWYQQKPGQAPRLLIYGASSRATGIPDRFSGSGSGTDFTLTISRLEPEDFAAYYCQQYGSSLTFGPGTKVDIKR
# B2: SC04-361 (scFv)
# scFv: EVQLVQSGAEVKKPGESLKISCKASGFSFSTYWIGWVRQMPGKGLEWMGIIYPADSDTRYSPSFQGQVTISADKSISTAYLQWSSLKASDTAMYYCARLRGPYYDFWNGYRETHDAFNVWGQGTMVTVSSGTGGSGGTGSGTGGSTDVVMTQSPDSLAVSLGERATINCKSSQNILDNSDNKNFLAWYQQKPGQPPKLLIYWASARESGVPDRFSGSGSGTDFTLTISSLQAEDVALYYCQQYYNTPITFGQGTRLEIKR
# B3: SC04-374 (scFv)
# scFv: QVTLKESGPTLVKPTQTLTLTCTFSGFSLSTSGVGVGWIRQPPGKALEWLAVIYWNDDKLYRPSLKSRLTITKDTSKNQVVLTMTKMDPVDTATYYCAHRHRYYDISGYYRLFSDAFDIWGQGTMVTVSSGTGGSGGTGSGTGGSTQSVVTQPPSVSGAPGQRVTISCTGSSSNIGAGYDVHWYQQLPGTAPKLLIYGNSNRPSGVPDRFSGSKSGTSASLAITGLQAEDEADYYCQSYDSSLSGSVFGGGTKLTVLG
# Target: whole inactivated rabies virus (rabies virus)
# Experiment: phage ELISA on coated whole inactivated rabies virus
row,Binder,OD 492 nm
1,B1,0.057 OD
2,B2,0.059 OD
3,B3,0.056 OD
